# From patent publication US20250368744A1 (CONCEPT TO MEDICINE BIOTECH, published 2025)
# Residue numbers refer to the chain shown, from its start.
# T1: human CCR4 (human, UniProt P51679 1-360)
# T1 construct: whole, on cells; also called hCCR4
# T1 sequence (looked up): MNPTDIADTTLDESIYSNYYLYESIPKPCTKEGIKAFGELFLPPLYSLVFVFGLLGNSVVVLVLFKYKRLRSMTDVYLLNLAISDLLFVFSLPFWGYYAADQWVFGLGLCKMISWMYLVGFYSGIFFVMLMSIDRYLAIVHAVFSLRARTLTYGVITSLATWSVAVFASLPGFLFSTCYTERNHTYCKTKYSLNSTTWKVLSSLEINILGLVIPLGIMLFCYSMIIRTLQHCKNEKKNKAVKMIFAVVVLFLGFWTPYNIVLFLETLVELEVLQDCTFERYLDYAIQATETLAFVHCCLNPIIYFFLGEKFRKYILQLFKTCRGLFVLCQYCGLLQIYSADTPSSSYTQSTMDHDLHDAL
# B1: 84D1-2H3 (antibody, V domains shown)
# VH: EVQLQQSGPVLVKPGASVKMSCKASGYTFTDYYVNWVKKSHGKSPEWIGIIKPYNGGTSYNQKFKGKATLTVDKSSSTVYMELNSLTSEDSAVYHCARFAYSRNPYAMDYWGQGTSVTVSS
# VL: DVLLTQTPLSLPVSLGDQASISCRSSQSIVHSTGNTYLEWYLQKPGQSPKVLIYKVSTRFSGVPDRFSGSGSGTDFTLKISRVEAEDLGVYYCFQGSHVPPTFGGGTKLEIK
# notes: tested as chimeric mAb of the mouse hybridoma clone
# B2: 96G3-1F10 (antibody, V domains shown)
# VH: DLQLKESGPGLVKPSQSLSLTCSVTGYSITSGYYWNWIRQFPGNKLEWMGFISYDGNNNYNPSLKNRISITRDTSKNQFFLNVKSVTTEDTATYYCSRATGLRKAWFAYWGQGTLVTVSA
# VL: DIQMTQSSSYLSVSLGGRVTITCKASDHINNWLAWYQQKPGNAPRLLISDTTSLGTGVPSRFRGSGSGKDYTLSITSLQTEDVATYFCQQYWSYPYTFGGGTKLEIR
# notes: tested as chimeric mAb
# B3: 115C5E3B8 (antibody, V domains shown)
# VH: DVQLQESGPGLVKPSQSLSLTCSVTGYSITSGYYWNWIRQFPGNKLEWMGYISYDGYNDYNPSLKNRISITRDTSKNQFFLKLNSVTTEDTATYYCARETGLRKAWFAYWGQGTLVTVSG
# VL: B2 VL with W32R, T52S, G55E, R63S, S74R, F87Y, S93G, Y94T, R107K
# notes: tested as chimeric mAb
# B4: 101D5G10G4 (antibody, V domains shown)
# VH: B2 VH with F51Y, V83L, K84N
# VL: B2 VL
# notes: tested as chimeric mAb
# B5: 86D4E12A5 (antibody, V domains shown)
# VH: DLQLKESGPGLVKPSQSLSLTCSVTGYSITSGYYWNWIRQLPGNKLEWMGYISFDGSNNYNPSLKTRISITRDTSKNQFFLKLNSVTSEDTATYFCARLRGLLLGHFDVWGTGTTVTVSS
# VL: DVQMTQSSSYLSVPLGGRVTITCKASDHINNRLAWYQQKPGNAPRLLISGATKLETGIPSRFRGSGSGKDYTLSIFSLQTEDVATYYCQQYWSTSYTFGGGTKLELR
# notes: tested as chimeric mAb
# B6: 187B5F10 (antibody, V domains shown)
# VH: EVQLVGSGGGLVQPKGSLKLSCAASGFNFNTYVMNWVRQAPGKGLEWVARIRTKSNNYATYYADSVKDRFTISRDDSESKLYLQMNNLKTEDTAMYYCVSGTITRLGGGMDYWGQGTSVTVSS
# VL: DIVMTQAAPSVPVTPGESVSISCRSSKRLLHSNGNTYLYWFLQRPGQSPQLLIYRMSNLASGVPDRFSGSGSGTAFTLRISRVEAEDVGVYYCMQHLEYPFTFGGGTKLEIK
# notes: tested as chimeric mAb
# B7: Hu195H8D10-1 NG-NA (antibody, V domains shown)
# VH: EVQLVESGGGLVQPGGSLRLSCAASGFNFNTYVMNWVRQAPGKGLEWVGRIRTKSNNYATYYADSVKDRFTISRDDSKNSLYLQMNSLKTEDTAVYYCARGTITRLGGGLDYWGQGTLVTVSS
# VL: DIVMTQSPLSLPVTPGEPASISCRSSKRLLHSNANTYLYWYLQKPGQSPQLLIYRMSNLASGVPDRFSGSGSGTDFTLKISRVEAEDVGVYYCMQHLEYPFTFGGGTKLEIK
# notes: humanized, PTM site removed
# B8: 99D1-1E11 (antibody, V domains shown)
# VH: B5 VH with L41F, F54Y, F95Y, A97V, L99E
# VL: B5 VL with V2I, P14A
# notes: tested as chimeric mAb
# B9: Hu195H8D10-13 (antibody, V domains shown)
# VH: B7 VH with G49A, K78E, N79S, V95M, A99V, R100S
# VL: B7 VL with A34G
# notes: humanized
# B10: Hu195H8D10-14 (antibody, V domains shown)
# VH: B7 VH with G49A, K78E, N79S, V95M, A99V, R100S
# VL: B7 VL with A34G, Y41F
# notes: humanized
# B11: Hu200C9B9-10 (antibody, V domains shown)
# VH: B7 VH with N28S, E46N, G49A, Y61F, A63V, A99V, R100S, G108A
# VL: B7 VL with R28S, A34G, Y41F
# notes: humanized
# B12: Hu200C9B9-8 (antibody, V domains shown)
# VH: B7 VH with N28S, G49A, Y61F, A63V, A99V, R100S, G108A
# VL: B7 VL with R28S, A34G, Y41F, D75A
# notes: humanized
# B13: Hu200C9B9-12 (antibody, V domains shown)
# VH: B7 VH with N28S, E46N, G49A, Y61F, A63V, A99V, R100S, G108A
# VL: B7 VL with R28S, A34G, Y41F, D75A
# notes: humanized
# B14: Hu200C9B9-5 (antibody, V domains shown)
# VH: B7 VH with N28S, G49A, Y61F, A63V, A99V, R100S, G108A
# VL: B7 VL with R28S, A34G
# notes: humanized
# B15: Hu200C9B9-1 (antibody, V domains shown)
# VH: B7 VH with N28S, Y61F, A63V, G108A
# VL: B7 VL with R28S, A34G
# notes: humanized
# B16: Hu200C9B9-2 (antibody, V domains shown)
# VH: B7 VH with N28S, Y61F, A63V, G108A
# VL: B7 VL with R28S, A34G, Y41F
# notes: humanized
# B17: Hu200C9B9-14 (antibody, V domains shown)
# VH: B7 VH with N28S, E46N, G49A, Y61F, A63V, K78E, A99V, R100S, G108A
# VL: B7 VL with R28S, A34G, Y41F
# notes: humanized
# B18: Hu200C9B9-11 (antibody, V domains shown)
# VH: B7 VH with N28S, E46N, G49A, Y61F, A63V, A99V, R100S, G108A
# VL: B7 VL with R28S, A34G, D75A
# notes: humanized
# B19: Hu200C9B9-15 (antibody, V domains shown)
# VH: B7 VH with N28S, E46N, G49A, Y61F, A63V, K78E, A99V, R100S, G108A
# VL: B7 VL with R28S, A34G, D75A
# notes: humanized
# Target: T2, human C-C motif chemokine receptor 8 (CCR8) (human, UniProt P51685 1-355)
# Experiment: cell-based or functional assay
# T2 sequence (P51685 whole entry): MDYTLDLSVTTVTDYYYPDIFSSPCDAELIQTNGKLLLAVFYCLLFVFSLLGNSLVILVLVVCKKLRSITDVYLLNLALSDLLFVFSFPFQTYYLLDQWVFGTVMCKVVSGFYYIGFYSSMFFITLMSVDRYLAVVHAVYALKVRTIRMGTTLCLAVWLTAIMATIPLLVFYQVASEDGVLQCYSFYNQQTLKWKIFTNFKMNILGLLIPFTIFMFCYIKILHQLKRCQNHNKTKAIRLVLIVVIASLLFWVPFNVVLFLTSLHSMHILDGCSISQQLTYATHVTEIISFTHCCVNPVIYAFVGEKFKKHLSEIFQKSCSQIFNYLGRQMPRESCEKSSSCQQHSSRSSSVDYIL
Binder,"IC50, hCCL1-induced Ca2+ flux (stimulation %), Chem-1 hCCR8 cells; fitted value, the curve stays at about 93 to 100 % beside hIgG1 [upper graph]","IC50, hCCL1-induced Ca2+ flux (stimulation %), Chem-1 hCCR8 cells [upper graph]","IC50 (read off the curve), hCCL1-induced Ca2+ flux (stimulation %), Chem-1 hCCR8 cells [upper graph]","IC50, hCCL1-induced Ca2+ flux (stimulation %), Chem-1 hCCR8 cells [lower graph]"
B1,22 nM,–,–,–
B2,–,15.2 nM,–,–
B3,–,17.8 nM,–,–
B4,–,25.9 nM,–,–
B5,–,–,~2 nM,12.1 nM
B6,–,–,–,1.55 nM

# Target: T2, human C-C motif chemokine receptor 8 …
# Experiment: FACS (MFI-PE) on HEK293 hCCR8 cells
row,Binder,EC50
1,B7,0.033 nM

# Target: T2, human C-C motif chemokine receptor 8 …
# Experiment: cell-based or functional assay
# Remark: another data set of the same source
row,Binder,"IC50, hCCL1-induced migration of BaF3 hCCR8 cells (RLU) [cont'd) C]"
1,B2,5.28 nM
2,B5,2.67 nM
3,B6,0.721 nM

# Target: T3, cyno CCR8 (cynomolgus, UniProt G7NYJ2 1-355)
# T3 construct: whole, on cells; also called cynomolgus CCR8 protein
# Experiment: FACS (MFI-PE) on CHO-K1 cyno CCR8 cells
# Experimental: (§1) Briefly, HEK293 hCCR8 cell line, CHO-K1 cyno CCR8 cell line or CHO-K1 hCCR4 cell line was first incubated with 5-fold serially diluted and 8 doses with the above 10 chimeric Abs and hlgG1 control starting from 100 nM at 4° C. for 30 mins. After washing by FACS buffer, PE Goat anti-Human IgG Fc Secondary Antibody (eBioscience™, Invitrogen) was added to each well and incubated at 4° C. for 30 mins. Samples were washed twice with FACS buffer. The mean florescence intensity (MFI) of PE was evaluated by MACSQuant Analyzer 16.
# T3 sequence (G7NYJ2 entry or part of it): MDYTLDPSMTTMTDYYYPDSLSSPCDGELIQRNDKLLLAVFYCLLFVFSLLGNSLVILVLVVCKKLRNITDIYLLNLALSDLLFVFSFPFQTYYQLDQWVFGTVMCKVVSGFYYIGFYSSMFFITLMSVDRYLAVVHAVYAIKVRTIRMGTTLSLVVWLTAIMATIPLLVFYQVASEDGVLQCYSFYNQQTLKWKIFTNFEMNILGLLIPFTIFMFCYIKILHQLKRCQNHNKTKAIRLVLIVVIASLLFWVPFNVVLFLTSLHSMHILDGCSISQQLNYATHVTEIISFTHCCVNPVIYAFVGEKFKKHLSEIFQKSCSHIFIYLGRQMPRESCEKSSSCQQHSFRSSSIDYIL
row,Binder,EC50
1,B1,0.0273 nM
2,B2,0.0853 nM
3,B4,0.118 nM
4,B5,0.122 nM
5,B8,0.0942 nM

# Target: T2, human C-C motif chemokine receptor 8 …
# Experiment: cell-based or functional assay
# Remark: another data set of the same source
row,Binder,"IC50, hCCL1-induced beta-arrestin recruitment (RLU), CHO-K1 hCCR8 cells"
1,B7,1.52 nM

# Target: T2, human C-C motif chemokine receptor 8 …
# Experiment: cell-based or functional assay
# Remark: another data set of the same source
Binder,"IC50, hCCL1-induced beta-arrestin recruitment (RLU), CHO-K1 hCCR8 cells; fitted value, points scatter between about 24000 and 33000 RLU with no clear inhibition","IC50, hCCL1-induced beta-arrestin recruitment (RLU), CHO-K1 hCCR8 cells"
B1,0.206 nM,–
B2,–,9.01 nM
B3,–,2.28 nM
B4,–,96.9 nM
B5,–,11.2 nM

# Target: T1, human CCR4
# Experiment: FACS, CHO-K1 hCCR4 cells
# Experimental: as §1
row,Binder,binding result
1,B1,no binding (tested: 100 nM (highest concentration tested))
2,B2,no binding (tested: 100 nM (highest concentration tested))
3,B3,no binding (tested: 100 nM (highest concentration tested))
4,B4,no binding (tested: 100 nM (highest concentration tested))
5,B5,no binding (tested: 100 nM (highest concentration tested))
6,B8,no binding (tested: 100 nM (highest concentration tested))
7,B6,no binding (tested: 100 nM (highest concentration tested))

# Target: T2, human C-C motif chemokine receptor 8 …
# Experiment: FACS (MFI-PE) on HEK293 hCCR8 cells
# Remark: another data set of the same source
# Experimental: as §1
row,Binder,EC50
1,B1,0.0473 nM
2,B2,0.109 nM
3,B3,0.126 nM
4,B4,0.117 nM
5,B5,0.17 nM
6,B8,0.101 nM
7,B6,0.0769 nM

# Target: T2, human C-C motif chemokine receptor 8 …
# Experiment: FACS (MFI-PE) on CHO-K1 hCCR8 cells, bars at five doses
# Experimental: PE Goat anti-Human IgG Fc Secondary Antibody (eBioscience™, Invitrogen) was added to each well and incubated at 4° C. for 30 mins. Samples were washed twice with FACS buffer. The mean florescence intensity (MFI) of PE was evaluated by MACSQuant Analyzer 16.
row,Binder,binding result
1,B9,binds
2,B10,binds
3,B11,binds
4,B12,binds
5,B13,binds
6,B14,binds
7,B15,binds
8,B16,binds
9,B17,binds
10,B18,binds
11,B19,binds
